# Tests used:
# Experiment in all cases: cell-based or functional assay
# [1] = biological target: Kappa strain spike protein on pseudotype virus (SARS-CoV-2, UniProt P0DTC2 14-1273)
# [2] = biological target: Omicron strain spike protein on pseudotype virus (SARS-CoV-2, UniProt P0DTC2 14-1273)
# [3] = biological target: Delta strain spike protein on pseudotype virus (SARS-CoV-2, UniProt P0DTC2 14-1273)
binder,measurement,setting,value
"0210-28K (antibody, V domains shown) VH: QMQLVQSGPEVKKPGTSVKVSCKASGFTFSISAVQWVRQARGQRLEWIGWIVVGSGNTNYAQKFQERVTITRDMSTSTAYMELSSLRFEDTAVYYCAAPYCGGDCSDGFDIWGQGTMVTVSS VL: not shown","IC50, inhibition of pseudotype virus infection, 1st experiment",[1],0.0108 µg/mL
same,"IC50, inhibition of pseudotype virus infection, 2nd experiment",[1],0.0203 µg/mL
same,"IC50, inhibition of pseudotype virus infection (luciferase)",[2],~0.2 nM
same,"IC50, inhibition of pseudotype virus infection, 1st experiment",[3],< 0.0075 µg/mL
same,"IC50, inhibition of pseudotype virus infection, 2nd experiment",[3],0.0121 µg/mL

# — patent WO2022210830A1 (dated 2022)
